Measured values reported in paper PMC4297981 (Scientific Reports, 2015).

Target: the molecule itself
Experiment: SDS-PAGE

B1: integrin β1a-TMC variant L749C (transmembrane and cytoplasmic domains, V717-K798, cys-less background), reconstituted in POPC/POPG liposomes (domain or fragment, human, UniProt P05556-1 717-798, looked up)
chain: VVENPESPTGPDIIPIVAGVVAGIVLIGLALLCIWKLLMIIHDRREFAKFEKEKMNAKWDTGENPIYKSAVTTVVNPKYEGK
Question: Does B1 bind?
Answer: Result: binds
